The text below walks through data of patent US20190185561A1 (Seagen, published 2019).

Changes are numbered by the printed parent chain. Names may count otherwise.

The target in assay [1] is murine CD47 on murine CD47 positive tumor cells (mouse) (UniProt Q61735). The experiment in a line: saturation binding by flow cytometry on HT-2 (mouse T cells); range printed beside the two rising curves (mIAP and Cleaved Vel), upper end. On the technique in general: Flow cytometry measures light scatter and fluorescence of single cells or particles in a stream.
Chain of murine CD47 on murine CD47 positive tumor cells (mouse) (Q61735 19-303): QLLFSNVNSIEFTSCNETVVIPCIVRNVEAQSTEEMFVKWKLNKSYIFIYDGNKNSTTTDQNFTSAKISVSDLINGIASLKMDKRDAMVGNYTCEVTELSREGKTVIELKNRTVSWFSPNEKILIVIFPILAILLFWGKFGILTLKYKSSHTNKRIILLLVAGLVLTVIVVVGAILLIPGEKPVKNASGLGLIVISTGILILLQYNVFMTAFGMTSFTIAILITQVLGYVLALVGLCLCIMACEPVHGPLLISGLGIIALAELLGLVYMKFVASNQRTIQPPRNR
The target is the same in assay [2]. The experiment in a line: saturation binding by flow cytometry on HT-2 (mouse T cells).
Assay [3] has the same target. Briefly: saturation binding by flow cytometry on HT-2 (mouse T cells); range printed beside the two rising curves (mIAP and Cleaved Vel), lower end.
Assay [4] addresses T1, human CD47 expressed on the cell surface (human, UniProt Q08722 19-323).
T1 construct: whole, on cells; also called CD47 on SW780, human red blood cells, HT1080, HCT116, Raji, L450cy and patient blood cells
The experiment in a line: saturation binding, flow cytometry, Raji cells.

Assay [5] has as its target T1, human CD47 expressed on the cell surface. Briefly: saturation binding, flow cytometry, HT1080 cells.
Assay [6] has the same target. Briefly: saturation binding, flow cytometry, SW780 cells.
For assay [7] the target is unchanged. Briefly: saturation binding, flow cytometry, HCT116 cells.
Assay [8] shares this target. The experiment in a line: saturating cellular FACS on L450cy lymphoma cells.
Assay [9] deals with T2, Soluble recombinant human CD47-Fc (R&D Systems) (human, UniProt Q08722 19-139).
T2 construct: Bought reagent; also called rhCD47; human CD47 (plate-coated); not shown: Fc part of the bought fusion protein
The experiment in a line: saturating ELISA on plates coated with human CD47; column head 'Average EC50 (nM)'. For orientation: ELISA stands for enzyme-linked immunosorbent assay.

For assay [10], the target named is T1, human CD47 expressed on the cell surface. The experiment in a line: saturation binding, flow cytometry, HCT116 cells; HCT116 cells.
Assay [11] addresses T2, Soluble recombinant human CD47-Fc (R&D …). Briefly: hCD47 ELISA, absorbance at 450 nm against antibody concentration.
Assay [12] deals with T1, human CD47 expressed on the cell surface. Briefly: saturation binding, flow cytometry, SW780 cells. The source holds these as a separate data set.
For assay [13] the target is unchanged. Briefly: saturation binding, flow cytometry, human red blood cells.
The target is the same in assay [14]. Briefly: saturation binding, flow cytometry, SW780 cells. This is another data set of the same source.
Assay [15] shares this target. Briefly: saturation binding, flow cytometry, human red blood cells. The source holds these as a separate data set.
For assay [16] the target is unchanged. Briefly: saturation binding, flow cytometry, SW780 cells. The source holds these as a separate data set.
Assay [17] concerns the target T2, Soluble recombinant human CD47-Fc (R&D …). Briefly: saturation binding ELISA on rhCD47.
Assay [18] concerns the target T1, human CD47 expressed on the cell surface. Briefly: saturation binding, flow cytometry, SW780 cells; SW780 human bladder cancer cells.

mIAP301 (antibody): the values for the Kd in assay [1] and in [3] were below 15 nM and above 7.5 nM, respectively. This molecule also had a concentration giving a half-maximal response (EC50 (read off the curve)) in assay [2] of 10 to 20 nM.

B1: Ab47 bearing the A4B4 coiled coil masking domain (antibody)
VH: GKIAALKQKIAALKYKNAALKKKIAALKQGGGGGPLGVRGGGGSEVQLVESGGGLVQPGGSLRLSCAASGFTFSGYGMSWVRQAPGKGLEWVATITSGGTYTYYPDSVKGRFTISRDNAKNSLYLQMNSLRAEDTAVYYCARSLAGNAMDYWGQGTLVTVSS
VL: GEIAALEQEIAALEKENAALEWEIAALEQGGGGGPLGVRGGGGSEIVLTQSPATLSLSPGERATLSCRASQTISDYLHWYQQKPGQAPRLLIKFASQSISGIPARFSGSGSGTDFTLTISSLEPEDFAVYYCQNGHGFPRTFGQGTKVEIKR
notes: IgG1
Regarding B1, the Kd amounted to 466 nM in assay [4], 1180 nM in [5], 1680 nM in assay [6] and 1120 nM in assay [7].

B2: mB6H12 (antibody, V domains shown)
VH: EVQLVESGGDLVKPGGSLKLSCAASGFTFSGYGMSWVRQTPDKRLEWVATITSGGTYTYYPDSVKGRFTISRDNAKNTLYLQIDSLKSEDTAIYFCARSLAGNAMDYWGQGTSVTVSS
VL: DIVMTQSPATLSVTPGDRVSLSCRASQTISDYLHWYQQKSHESPRLLIKFASQSISGIPSRFSGSGSGSDFTLSINSVEPEDVGVYYCQNGHGFPRTFGGGTKLEIKR
notes: Murine parental antibody; also called murine B6H12; mouse B6H12
In assay [8], B2 displayed a dissociation constant Kd of 1.2 nM. Further, the concentration for a half-maximal effect (EC50) in assay [9] was 37 nM.

B3: Ab47 bearing the A2B1 coiled coil masking domain (antibody)
VH: GASTSVDELQAEVDQLQDENYALKTKVAQLRKKVEKLSEGGGGGPLGVRGGGGSEVQLVESGGGLVQPGGSLRLSCAASGFTFSGYGMSWVRQAPGKGLEWVATITSGGTYTYYPDSVKGRFTISRDNAKNSLYLQMNSLRAEDTAVYYCARSLAGNAMDYWGQGTLVTVSS
VL: GASTTVAQLRERVKTLRAQNYELESEVQRLREQVAQLASGGGGGPLGVRGGGGSEIVLTQSPATLSLSPGERATLSCRASQTISDYLHWYQQKPGQAPRLLIKFASQSISGIPARFSGSGSGTDFTLTISSLEPEDFAVYYCQNGHGFPRTFGQGTKVEIKR
notes: IgG1
On to B3, for which the dissociation constant (Kd) in [10] was found to be 1780 nM.

B4: hB6H12.4 (antibody, V domains shown)
VH: EVQLLESGGGLVQPGGSLRLSCAASGFTFSGYGMSWVRQAPGKRLEWVATITSGGTYTYYPDSVKGRFTISRDNSKNTLYLQMNSLRAEDTAIYFCARSLAGNAMDYWGQGTLVTVSS
VL: DIQMTQSPSSLSASVGDRVTLTCRASQTISNYLAWYQQKPGKVPKLLIKFASTLQSGVPSRFSGSGSGSDFTLTISSLQPEDVATYYCQNGHGFPRTFGQGTKLEIKR
notes: also called hvH1/hvK4; antibody 4 (bin A)
In assay [8], B4 yielded a dissociation constant Kd of 0.9 nM. In addition, in assay [9], the EC50 amounted to 24 nM. For the same molecule, the “EC50 (read off the curve)” value in assay [11] was around 1 nM.

B5: Cleaved Vel-IPV-hB6H12.4 (antibody, V domains shown)
VH: B4 VH
VL: B4 VL
notes: MMP2-cleaved; IgG1
The molecule B5 gave a Kd in assay [12] of 9.2 nM.

B6: hB6H12.2 (antibody, V domains shown)
VH: B4 VH
VL: EIVMTQSPDFQSVTPKEKVTLTCRASQTISDYLHWYQQKPDQSPKLLIKFASQSISGVPSRFSGSGSGTDFTLTINSLEAEDAATYYCQNGHGFPRTFGQGTKLEIKR
notes: also called hvH1/hvK2; antibody 2 (bin A)
In the case of B6, binding in assay [8] was put at a Kd of 0.9 nM. Besides, the EC50 in assay [9] turned out to be 30 nM.

B7: Ab47 (antibody, V domains shown)
VH: B4 VH with L5V, R44G, S75A, T78S, I93V, F95Y
VL: EIVLTQSPATLSLSPGERATLSCRASQTISDYLHWYQQKPGQAPRLLIKFASQSISGIPARFSGSGSGTDFTLTISSLEPEDFAVYYCQNGHGFPRTFGQGTKVEIKR
notes: Humanized IgG1; also called alternatively humanized antibody Ab47; humanized IgG1 hB6H12 Ab47
B7: the Kd worked out at 3.3 nM in assay [4]; 21 nM in [5]; 9.6 nM in assay [6]; 7.8 nM in [7]; 12.1 nM in assay [13]; 6.8 nM in [14]. The Kd in assay [15] was found to be 26.5 nM; in [8], 0.5 nM; in [16] it was 8 nM; in assay [17], 1 nM. The EC50 in assay [9] turned out to be 16 nM. In addition, in [11], the concentration giving a half-maximal response (EC50 (read off the curve)) was around 1 nM.

B8: hB6H12.3 G91A (antibody, V domains shown)
VH: B4 VH
VL: B6 VL with T69S, G91A
notes: IgG1; also called hB6H12.3 (deamidation mutant); hvH1/hvK3 G91A
For B8, the Kd in [17] is 2.7 nM; in assay [18], 62.3 nM.

B9: hB6H12.20 (antibody, V domains shown)
VH: B4 VH with L5V, R44G, P61A, M83I, I93V, F95Y
VL: B4 VL
notes: also called hvH5/hvK4; antibody 20 (bin B)
Turning to B9, the Kd in assay [8] was found to be 1.8 nM. For the same molecule, the half-maximal effective concentration (EC50) in assay [9] turned out to be 56 nM. In addition, the half-maximal effective concentration (EC50 (read off the curve)) in assay [11] was around 4 nM.

B10: hB6H12.18 (antibody, V domains shown)
VH: B4 VH with L5V, R44G, P61A, M83I, I93V, F95Y
VL: B6 VL
notes: also called hvH5/hvK2; antibody 18 (bin B)
With B10, the Kd in assay [8] was determined as 1.1 nM. The EC50 in [9] came to 38 nM.

B11: Cleaved Vel-IPV-hB6H12.20 (antibody, V domains shown)
VH: B4 VH with L5V, R44G, P61A, M83I, I93V, F95Y
VL: B4 VL
notes: MMP2-cleaved; IgG1
B11 displayed a dissociation constant (Kd) in [12] of 30.2 nM.

B12: hB6H12.19 (antibody, V domains shown)
VH: B4 VH with L5V, R44G, P61A, M83I, I93V, F95Y
VL: B6 VL with T69S
notes: also called hvH5/hvK3; antibody 19 (bin B)
The molecule B12 came in with a Kd in [8] of 1.3 nM. Also, the EC50 in assay [9] came out at 55 nM. For the same molecule, the “EC50 (read off the curve)” value in assay [11] was around 3 nM.

B13: hB6H12.17 (antibody, V domains shown)
VH: B4 VH with L5V, R44G, P61A, M83I, I93V, F95Y
VL: B6 VL with T85V
notes: also called hvH5/hvK1; antibody 17 (bin B)
B13 had a dissociation constant (Kd) in assay [8] of 1 nM. Besides, the EC50 in assay [9] is 43 nM.

B14: Ab47 G91A (antibody, name in Kabat numbering, V domains shown)
VH: B4 VH with L5V, R44G, S75A, T78S, I93V, F95Y
VL: B7 VL with G91A
notes: built from the Ab47 light chain variable region with G91A; IgG1; also called Ab47 variant bearing a G91A mutation in LCDR3
On to B14, for which the Kd was determined as 100 nM in [13] and 19.8 nM in assay [14].

B15: hB6H12.1 (antibody, V domains shown)
VH: B4 VH
VL: B6 VL with T85V
notes: also called hvH1/hvK1; antibody 1 (bin A)
In the case of B15, in assay [8], the dissociation constant Kd is 0.9 nM. In [9], the EC50 was 30 nM.

B16: Cleaved Vel-IPV-hB6H12.19 (antibody, V domains shown)
VH: B4 VH with L5V, R44G, P61A, M83I, I93V, F95Y
VL: B6 VL with T69S
notes: MMP2-cleaved; IgG1
Take B16: the Kd in [12] was 26.6 nM.

A word on the Kd: it is a measure of binding affinity in units of concentration. Broadly, the EC50 (read off the curve) is the midpoint of the concentration-response curve. As a reminder, the EC50 is the midpoint of the concentration-response curve.
